Experimental findings from paper PMC5970177 are described below.

In this test the target is αvβ3 integrin (human (endogenous in U87MG)) (UniProt P06756).
Chain of UniProt P06756 (P06756 31-1048, chain 1 of 2): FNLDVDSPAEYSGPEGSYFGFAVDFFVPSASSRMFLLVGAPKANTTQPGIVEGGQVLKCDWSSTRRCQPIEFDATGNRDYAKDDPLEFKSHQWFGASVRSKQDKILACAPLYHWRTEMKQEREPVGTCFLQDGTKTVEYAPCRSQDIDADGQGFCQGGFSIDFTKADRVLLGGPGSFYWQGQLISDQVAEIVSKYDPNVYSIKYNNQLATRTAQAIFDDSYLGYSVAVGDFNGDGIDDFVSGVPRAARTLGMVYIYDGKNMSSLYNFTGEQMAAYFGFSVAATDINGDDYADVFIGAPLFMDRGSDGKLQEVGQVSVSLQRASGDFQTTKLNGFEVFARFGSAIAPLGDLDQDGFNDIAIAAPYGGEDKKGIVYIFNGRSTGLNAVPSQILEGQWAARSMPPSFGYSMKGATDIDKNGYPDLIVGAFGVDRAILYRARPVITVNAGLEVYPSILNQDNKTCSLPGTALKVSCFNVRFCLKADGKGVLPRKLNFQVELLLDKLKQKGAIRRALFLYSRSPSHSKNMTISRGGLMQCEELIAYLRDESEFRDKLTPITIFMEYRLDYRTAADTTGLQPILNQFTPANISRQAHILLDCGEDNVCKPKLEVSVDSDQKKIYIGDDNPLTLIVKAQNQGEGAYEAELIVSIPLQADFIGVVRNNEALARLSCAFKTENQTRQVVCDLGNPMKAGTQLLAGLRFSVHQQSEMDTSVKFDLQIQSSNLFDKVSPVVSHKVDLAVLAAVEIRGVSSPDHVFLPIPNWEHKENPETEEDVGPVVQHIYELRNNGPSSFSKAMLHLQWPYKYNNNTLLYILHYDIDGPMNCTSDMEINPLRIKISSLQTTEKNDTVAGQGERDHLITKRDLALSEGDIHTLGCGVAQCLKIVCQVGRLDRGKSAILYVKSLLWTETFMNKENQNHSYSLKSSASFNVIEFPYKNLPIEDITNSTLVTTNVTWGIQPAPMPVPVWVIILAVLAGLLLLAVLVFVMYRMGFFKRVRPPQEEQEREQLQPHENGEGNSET
Chain of UniProt P06756 (P05106 27-788, chain 2 of 2, further chain): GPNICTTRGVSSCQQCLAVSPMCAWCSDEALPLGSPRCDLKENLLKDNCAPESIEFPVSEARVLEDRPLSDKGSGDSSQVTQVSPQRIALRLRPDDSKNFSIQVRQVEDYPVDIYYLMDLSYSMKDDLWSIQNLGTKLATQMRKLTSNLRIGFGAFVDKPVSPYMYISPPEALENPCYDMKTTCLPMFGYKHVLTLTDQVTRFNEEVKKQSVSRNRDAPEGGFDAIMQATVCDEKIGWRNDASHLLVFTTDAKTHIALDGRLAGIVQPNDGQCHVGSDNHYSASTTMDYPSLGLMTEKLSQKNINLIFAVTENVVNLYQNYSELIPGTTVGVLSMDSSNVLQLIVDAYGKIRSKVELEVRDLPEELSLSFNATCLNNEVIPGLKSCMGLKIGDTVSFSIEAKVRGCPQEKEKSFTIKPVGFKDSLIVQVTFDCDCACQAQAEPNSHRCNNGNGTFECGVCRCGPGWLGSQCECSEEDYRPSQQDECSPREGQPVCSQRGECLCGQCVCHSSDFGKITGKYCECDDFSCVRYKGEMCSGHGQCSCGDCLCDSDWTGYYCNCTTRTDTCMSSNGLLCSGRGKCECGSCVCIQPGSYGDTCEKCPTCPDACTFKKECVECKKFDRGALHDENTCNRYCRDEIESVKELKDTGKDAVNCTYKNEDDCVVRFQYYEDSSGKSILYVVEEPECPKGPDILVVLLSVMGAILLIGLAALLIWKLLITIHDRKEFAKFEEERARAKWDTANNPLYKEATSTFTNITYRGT

For 700DX-PEG-PGlu-cRGD15 (peptide), the cellular uptake in U87MG cells at 200 nM 700DX (fluorescence intensity after 7 h), fold over cells incubated with 700DX-PEG-cRGD is 2.5 times and the cellular uptake in U87MG cells at 200 nM 700DX (fluorescence intensity after 7 h), fold over cells incubated with free 700DX turned out to be 4.5 times.
